Test results published in patent publication US20180044404A1.

Target: CD200 on FBL cells transduced with CD200 (CD200+ FBL)
Assay: cell-based or functional assay

## CD200R-9aas-CD28Cys (murine construct V) (from UniProt Q9ES57 26-229; P31041 142-150; P31041 151-218)
  accumulation of transduced T cells over multiple stimulations with irradiated CD200+ FBL: 3 fold
  lysis of CD200+ FBL cells (CFSE-based cytotoxicity assay): > 40%
